Experimental findings from patent US20150064134A1 are described below.

Holding throughout (assay): cell-based or functional assay
In assay [1] the target is CDK3/cyclinE(h) (human) (UniProt Q00526).
In assay [2] the target is T1, NEK2(h) (human) (UniProt P51955).
T1 sequence (looked up): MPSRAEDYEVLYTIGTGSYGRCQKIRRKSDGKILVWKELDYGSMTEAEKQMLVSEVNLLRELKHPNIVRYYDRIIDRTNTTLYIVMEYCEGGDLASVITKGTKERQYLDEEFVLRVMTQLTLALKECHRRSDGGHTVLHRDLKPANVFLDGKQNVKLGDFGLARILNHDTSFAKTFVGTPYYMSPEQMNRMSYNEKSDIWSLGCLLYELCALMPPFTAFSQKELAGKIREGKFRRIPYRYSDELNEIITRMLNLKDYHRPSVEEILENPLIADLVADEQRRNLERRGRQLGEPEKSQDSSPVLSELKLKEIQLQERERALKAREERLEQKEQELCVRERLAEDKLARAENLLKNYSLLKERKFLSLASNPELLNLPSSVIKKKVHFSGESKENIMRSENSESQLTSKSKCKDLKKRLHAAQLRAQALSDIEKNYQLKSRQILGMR

Assay [3] deals with MuSK(h) (human) (UniProt O15146).
The target of assay [4] is Aurora-B(h) (human) (UniProt Q96GD4).
For assay [5], the target named is CK1δ(h) (human) (UniProt P48730).
The target in assay [6] is ROCK-II(h) (human) (UniProt O75116).
In assay [7] the target is Ros(h) (human) (UniProt P08922).
Assay [8] deals with AMPKα2(h) (human) (UniProt P54646).
The target of assay [9] is PAK4(h) (human) (UniProt O96013).
Assay [10] deals with PKCγ(h) (human) (UniProt P05129).
The target of assay [11] is PTK5(h) (human) (UniProt P42685).
Assay [12] addresses SAPK2a(h) (human) (UniProt Q16539).
In assay [13] the target is NEK7(h) (human) (UniProt Q8TDX7).
Assay [14] concerns the target T2, PKCζ(h) (human) (UniProt Q05513).
T2 sequence (looked up): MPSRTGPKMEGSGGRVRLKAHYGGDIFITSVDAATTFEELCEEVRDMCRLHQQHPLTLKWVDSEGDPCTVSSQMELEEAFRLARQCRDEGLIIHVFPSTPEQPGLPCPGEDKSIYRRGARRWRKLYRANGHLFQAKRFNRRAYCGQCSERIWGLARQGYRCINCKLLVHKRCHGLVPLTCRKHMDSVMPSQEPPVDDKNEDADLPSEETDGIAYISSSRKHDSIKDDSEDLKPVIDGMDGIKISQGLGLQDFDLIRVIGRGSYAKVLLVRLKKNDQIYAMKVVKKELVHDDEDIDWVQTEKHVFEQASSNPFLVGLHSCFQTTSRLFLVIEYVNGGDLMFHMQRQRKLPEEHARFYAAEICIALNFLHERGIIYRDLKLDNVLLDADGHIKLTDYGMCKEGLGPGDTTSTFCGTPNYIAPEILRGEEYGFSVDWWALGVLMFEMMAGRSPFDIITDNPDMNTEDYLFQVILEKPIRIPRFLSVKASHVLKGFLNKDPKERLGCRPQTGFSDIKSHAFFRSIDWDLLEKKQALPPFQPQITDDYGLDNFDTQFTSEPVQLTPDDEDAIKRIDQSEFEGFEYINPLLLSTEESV

For assay [15], the target named is T3, PrKX(h) (human) (UniProt P51817).
T3 sequence (looked up): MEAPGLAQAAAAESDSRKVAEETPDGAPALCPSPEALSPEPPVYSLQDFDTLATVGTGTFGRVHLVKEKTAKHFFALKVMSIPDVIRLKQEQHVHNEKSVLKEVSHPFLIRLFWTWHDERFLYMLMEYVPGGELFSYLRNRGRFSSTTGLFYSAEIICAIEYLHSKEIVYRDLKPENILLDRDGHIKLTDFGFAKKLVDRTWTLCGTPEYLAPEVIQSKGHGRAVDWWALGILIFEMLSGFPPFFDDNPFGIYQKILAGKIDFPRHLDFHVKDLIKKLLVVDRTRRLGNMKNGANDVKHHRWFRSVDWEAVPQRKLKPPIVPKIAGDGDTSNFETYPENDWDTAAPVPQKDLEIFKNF

The target in assay [16] is IR(h) (human) (UniProt P06213).
Assay [17] deals with T4, NEK11(h) (human) (UniProt Q8NG66).
T4 sequence (looked up): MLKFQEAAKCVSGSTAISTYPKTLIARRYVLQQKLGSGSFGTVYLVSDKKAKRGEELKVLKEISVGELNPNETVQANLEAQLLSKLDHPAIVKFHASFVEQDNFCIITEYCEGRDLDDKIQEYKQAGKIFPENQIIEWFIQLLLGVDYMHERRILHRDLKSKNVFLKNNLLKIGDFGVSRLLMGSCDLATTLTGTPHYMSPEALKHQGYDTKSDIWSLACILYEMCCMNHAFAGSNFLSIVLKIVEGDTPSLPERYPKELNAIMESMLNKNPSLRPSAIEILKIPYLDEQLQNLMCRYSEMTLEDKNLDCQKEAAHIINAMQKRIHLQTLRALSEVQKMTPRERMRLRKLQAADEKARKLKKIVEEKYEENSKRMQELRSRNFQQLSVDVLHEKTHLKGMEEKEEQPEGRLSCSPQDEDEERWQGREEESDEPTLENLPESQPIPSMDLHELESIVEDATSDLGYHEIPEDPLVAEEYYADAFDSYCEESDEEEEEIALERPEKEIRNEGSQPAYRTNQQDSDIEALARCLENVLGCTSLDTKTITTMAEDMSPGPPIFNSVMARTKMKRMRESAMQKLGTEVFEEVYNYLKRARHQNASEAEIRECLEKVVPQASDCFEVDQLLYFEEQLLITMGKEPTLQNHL

The target of assay [18] is JNK3(h) (human) (UniProt P53779).
Assay [19] concerns the target FGFR1(h) (human) (UniProt P11362).
For assay [20], the target named is PKA(h) (human) (UniProt P17612).
The target in assay [21] is SRPK1(h) (human) (UniProt Q96SB4).
Assay [22] has as its target PDGFRα(h) (human) (UniProt P16234).

Sequence of PDGFRα(h) (human) (P16234 550-1089 limits assumed): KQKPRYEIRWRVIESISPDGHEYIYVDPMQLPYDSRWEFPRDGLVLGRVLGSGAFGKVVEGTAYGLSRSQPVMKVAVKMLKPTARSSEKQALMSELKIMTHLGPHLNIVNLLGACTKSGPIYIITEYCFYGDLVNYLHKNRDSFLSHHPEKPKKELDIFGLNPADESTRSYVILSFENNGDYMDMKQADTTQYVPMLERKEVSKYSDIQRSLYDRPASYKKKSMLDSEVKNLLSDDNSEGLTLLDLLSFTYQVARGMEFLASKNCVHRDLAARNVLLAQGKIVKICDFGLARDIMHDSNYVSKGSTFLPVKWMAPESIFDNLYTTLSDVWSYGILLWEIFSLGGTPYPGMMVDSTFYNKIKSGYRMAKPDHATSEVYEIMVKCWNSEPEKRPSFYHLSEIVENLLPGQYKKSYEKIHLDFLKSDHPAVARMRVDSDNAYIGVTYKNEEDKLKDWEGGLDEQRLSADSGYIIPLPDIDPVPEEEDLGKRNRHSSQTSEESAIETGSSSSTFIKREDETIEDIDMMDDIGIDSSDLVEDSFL
Sequence of PTK5(h) (human) (P42685 whole entry): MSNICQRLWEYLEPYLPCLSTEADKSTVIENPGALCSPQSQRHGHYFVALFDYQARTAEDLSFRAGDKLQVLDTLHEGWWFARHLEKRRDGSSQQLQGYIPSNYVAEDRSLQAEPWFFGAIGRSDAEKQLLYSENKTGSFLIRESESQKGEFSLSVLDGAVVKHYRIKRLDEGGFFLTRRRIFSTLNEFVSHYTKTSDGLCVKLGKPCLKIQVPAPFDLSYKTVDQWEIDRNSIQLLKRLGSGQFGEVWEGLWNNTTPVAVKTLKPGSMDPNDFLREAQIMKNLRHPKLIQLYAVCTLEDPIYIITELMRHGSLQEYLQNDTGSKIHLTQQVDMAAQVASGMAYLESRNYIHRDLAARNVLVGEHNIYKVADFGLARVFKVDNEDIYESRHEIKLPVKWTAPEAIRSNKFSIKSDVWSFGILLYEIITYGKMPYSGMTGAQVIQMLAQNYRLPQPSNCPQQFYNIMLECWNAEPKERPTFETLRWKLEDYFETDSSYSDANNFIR
Sequence of Aurora-B(h) (human) (Q96GD4 whole entry): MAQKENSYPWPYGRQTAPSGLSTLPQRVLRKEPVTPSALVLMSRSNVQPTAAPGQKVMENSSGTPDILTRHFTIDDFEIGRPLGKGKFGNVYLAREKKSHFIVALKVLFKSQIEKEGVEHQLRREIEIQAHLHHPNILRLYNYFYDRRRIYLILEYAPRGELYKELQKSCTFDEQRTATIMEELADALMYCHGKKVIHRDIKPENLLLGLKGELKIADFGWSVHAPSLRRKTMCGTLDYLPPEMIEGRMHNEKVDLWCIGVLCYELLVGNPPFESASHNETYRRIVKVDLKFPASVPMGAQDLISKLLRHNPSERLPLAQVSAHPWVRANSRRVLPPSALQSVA
Sequence of Ros(h) (human) (P08922 1883-2347 limits assumed): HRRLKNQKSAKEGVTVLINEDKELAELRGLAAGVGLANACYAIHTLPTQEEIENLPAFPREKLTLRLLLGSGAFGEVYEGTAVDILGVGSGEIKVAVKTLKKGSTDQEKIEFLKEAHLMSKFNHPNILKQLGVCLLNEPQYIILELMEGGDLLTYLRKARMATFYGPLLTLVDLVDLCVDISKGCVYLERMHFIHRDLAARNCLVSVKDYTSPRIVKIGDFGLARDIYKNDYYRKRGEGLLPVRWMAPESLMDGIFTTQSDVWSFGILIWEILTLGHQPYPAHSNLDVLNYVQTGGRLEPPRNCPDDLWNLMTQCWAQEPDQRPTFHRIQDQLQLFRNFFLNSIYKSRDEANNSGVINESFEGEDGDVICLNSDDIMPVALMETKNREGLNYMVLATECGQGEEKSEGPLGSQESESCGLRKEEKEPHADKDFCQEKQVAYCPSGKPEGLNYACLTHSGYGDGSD
Sequence of IR(h) (human) (P06213 1005-1310 limits assumed): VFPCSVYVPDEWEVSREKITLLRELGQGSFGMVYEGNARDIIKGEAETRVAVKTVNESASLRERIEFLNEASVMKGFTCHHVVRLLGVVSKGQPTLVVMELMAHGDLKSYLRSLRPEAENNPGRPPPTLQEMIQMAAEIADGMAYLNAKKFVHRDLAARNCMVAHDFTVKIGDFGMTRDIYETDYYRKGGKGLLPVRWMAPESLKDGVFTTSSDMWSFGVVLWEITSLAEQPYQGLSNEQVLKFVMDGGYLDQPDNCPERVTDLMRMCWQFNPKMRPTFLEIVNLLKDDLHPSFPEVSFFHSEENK
Sequence of SAPK2a(h) (human) (Q16539 whole entry): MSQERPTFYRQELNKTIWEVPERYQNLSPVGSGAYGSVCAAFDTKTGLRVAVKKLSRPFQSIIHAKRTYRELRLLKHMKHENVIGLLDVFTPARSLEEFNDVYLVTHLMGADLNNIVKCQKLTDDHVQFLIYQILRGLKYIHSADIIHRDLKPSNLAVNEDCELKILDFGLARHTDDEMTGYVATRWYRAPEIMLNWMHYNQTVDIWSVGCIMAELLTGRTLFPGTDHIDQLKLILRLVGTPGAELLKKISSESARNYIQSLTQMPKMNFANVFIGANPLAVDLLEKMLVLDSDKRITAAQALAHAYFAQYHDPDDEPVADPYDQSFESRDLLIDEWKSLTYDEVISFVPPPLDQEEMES
Sequence of FGFR1(h) (human) (P11362 456-765 limits assumed): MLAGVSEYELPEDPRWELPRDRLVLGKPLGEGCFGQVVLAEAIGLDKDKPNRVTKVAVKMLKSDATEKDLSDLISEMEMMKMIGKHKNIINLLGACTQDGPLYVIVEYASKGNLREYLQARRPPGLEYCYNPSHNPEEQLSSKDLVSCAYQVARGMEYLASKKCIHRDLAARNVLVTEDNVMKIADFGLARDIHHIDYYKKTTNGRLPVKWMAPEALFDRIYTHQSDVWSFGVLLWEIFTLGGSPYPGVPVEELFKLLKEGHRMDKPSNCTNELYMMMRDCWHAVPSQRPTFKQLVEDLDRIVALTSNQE

As to MMI-0300 (peptide), the % activity at 100 µM in assay [1] was 94%; in [2] it was 78%; in assay [3], 93%; in [4], 128%; in [5], 92%; in assay [6] it was 74%. Also, the % activity at 100 µM in assay [7] was 95%; in [8] it was 54%; in [9], 94%; in assay [10] it was 89%; in assay [11], 132%; in assay [12], 90%. The % activity at 100 µM worked out at 84% in assay [13]; 81% in assay [14]; 61% in [15]; 96% in assay [16]; 53% in [17]; 89% in assay [18]. For the same substance, the % activity at 100 µM in [19] is 55%; in assay [20], 119%; in assay [21] it was 90%; in assay [22], 65%.
For the substance MMI-0500 (peptide), the % activity at 100 µM in assay [1] is 8%; in assay [2], 0%; in assay [3], 27%; in [4] it was 5%; in [5], 78%; in [6], 2%. Further, the % activity at 100 µM in assay [7] is 150%; in assay [8], 9%; in assay [9], 86%; in assay [10] it was 6%; in assay [11], 96%; in assay [12], 52%. Also, the % activity at 100 µM in assay [13] was found to be 89%; in assay [14] it was 7%; in assay [15] it was 57%; in assay [16] it was 95%; in assay [17], 2%; in assay [18] it was 171%. For the same substance, the % activity at 100 µM in assay [19] was 18%; in assay [20] it was 118%; in [21] it was 80%; in assay [22], 40%.
Take MMI-0400 (peptide): the % activity at 100 µM came to 92% in assay [1]; 61% in [2]; 93% in assay [3]; 150% in assay [4]; 93% in [5]; 77% in assay [6]. Also, the % activity at 100 µM in assay [7] turned out to be 99%; in assay [8], 58%; in assay [9], 89%; in [10], 79%; in assay [11] it was 129%; in assay [12] it was 85%. Also, the % activity at 100 µM was determined as 87% in [13]; 75% in assay [14]; 76% in assay [15]; 85% in assay [16]; 33% in [17]; 70% in assay [18]. Moreover, the % activity at 100 µM in assay [19] came out at 59%; in assay [20], 119%; in assay [21] it was 96%; in assay [22], 40%.
